Test results reported in patent US20150306238A1, “BACTERIA TARGETING NANOPARTICLES AND RELATED METHODS OF USE” (THE REGENTS OF THE UNIVERSITY OF MICHIGAN, priority 2012, published 2015).
pKd: −log10 of the molar value. “And” between values parts separate entries of the source, which are not always exact repeats. Equal values may be shown once. Read-outs that look alike come from different tables or passages of the source.

Columns and labels:
[1] = tested on: N^α-Ac-Lys-(D)-Ala-(D)-Lac peptide; assay: SPR binding to vancomycin-resistant bacterial cell wall model
Description: SPR spectroscopy is a real-time kinetic method that allows the measurement of the on-rate constant (kon), the off-rate constant (koff), and equilibrium dissociation constant KD (=koff/kon) for receptor-ligand interactions occurring on the surface (see, e.g., Rao, J.; et al., Chem. Biol. (Cambridge, Mass., U.S.) 1999, 6, 353-359; Rao, J.; et al., J. Am. Chem. Soc. 1999, 121, 2629-2630; Hong, S.; et al., Chem. Biol. (Cambridge, Mass., U.S.) 2007, 14, 107-115; Li, M.-H.; Eur. J. Med. Chem. 2012, 47, 560-572; Plantinga, A.; et al., ACS Med. Chem. Lett. 2011, 2, 363-367; Cooper, M. A.; et al., Bioorg. Med. Chem. 2000, 8, 2609-2616; each herein incorporated by reference in its entirety)). The experiments employed SPR spectroscopy to determine the binding constant KD for dendrimer-based multivalent vancomycin conjugates to the cell wall ligands immobilized on the chip surface as a model for the bacterial cell surface. […]

Staphylococcus aureus = assay: Turbidity assay (bacterial cell lysis / growth); type: cell-based; settings: OD at 650 nm, 24 h
Description: This example describes bacterial cell lysis experiments. Whether the binding of the vancomycin-conjugated dendrimer to the bacterial membrane causes bacterial cell lysis was next investigated. […] S.; et al., Antimicrob. Agents Chemother. 2009, 53, 3375-3383; herein incorporated by reference in its entirety)). On the other hand, the lack of such a mechanism would be more desirable for the diagnostic applications that aim for bacterial detection, isolation, and enumeration of whole cells. To determine the degree of cell lysis, a turbidity assay was employed. This assay quantitates the bacterial population in a culture by measuring the optical density (OD at 650 nm), and the cell populations are correlated with the degree of lysis (see, e.g., Chung, H. S.; et al., Proc. Natl. Acad. Sci. U.S.A. 2009, 106, 21872-21877; Lunde, C. S.; et al., Antimicrob. Agents Chemother. 2009, 53, 3375-3383; each herein incorporated by reference in its entirety)). Effects of the conjugates I-VI, VIII, IX on the cell growth rate were determined using the same Gram-positive strain Staphylococcus aureus and were presented as a function of the inhibitor concentration (FIGS. 12 and 13). […]
Turbidity assay. […] After incubation of the plates at 37° C. for 24 h, bacterial growth was examined by optical microscopy and reading an optical density (O. D.) value at 650 nm by an ELISA plate reader.

[2] = target: N^α-Ac-Lys-(D)-Ala-(D)-Ala peptide; settings: vancomycin to (D)-Ala-(D)-Ala, literature; cited from earlier work
[3] = tested on: N^α-Ac-Lys-(D)-Ala-(D)-Lac peptide; settings: cited from earlier work
[4] = tested on: N^α-Ac-Lys-(D)-Ala-(D)-Ala peptide; assay: SPR binding to vancomycin-susceptible bacterial cell wall model; settings: for pKd: (D)-Ala-(D)-Ala surface
Description: SPR spectroscopy is a real-time kinetic method that allows the measurement of the on-rate constant (kon), the off-rate constant (koff), and equilibrium dissociation constant KD (=koff/kon) for receptor-ligand interactions occurring on the surface (see, e.g., Rao, J.; et al., Chem. Biol. (Cambridge, Mass., U.S.) 1999, 6, 353-359; Rao, J.; et al., J. Am. Chem. Soc. 1999, 121, 2629-2630; Hong, S.; et al., Chem. Biol. (Cambridge, Mass., U.S.) 2007, 14, 107-115; Li, M.-H.; Eur. J. Med. Chem. 2012, 47, 560-572; Plantinga, A.; et al., ACS Med. Chem. Lett. 2011, 2, 363-367; Cooper, M. A.; et al., Bioorg. Med. Chem. 2000, 8, 2609-2616; each herein incorporated by reference in its entirety)). The experiments employed SPR spectroscopy to determine the binding constant KD for dendrimer-based multivalent vancomycin conjugates to the cell wall ligands immobilized on the chip surface as a model for the bacterial cell surface. The model surface was prepared by utilizing each CMS sensor chip which was treated to present N^α-Ac-Lys-(D)-Ala-(D)-Ala or N^α-Ac-(D)-Ala-(D)-Lac as the cell wall precursor on the surface, each representing a vancomycin-susceptible and vancomycin-resistant cell wall model, respectively (see, e.g., Rao, J.; et al., Chem. Biol. (Cambridge, Mass., U.S.) 1999, 6, 353-359; Rao, J.; et al., J. Am. Chem. Soc. 1999, 121, 2629-2630; each herein incorporated by reference in its entirety)). Such a peptide-presenting chip was prepared typically following a N-(3-dimethylaminopropyl)-N′-ethylcarbodiimide (EDC)-based amide coupling method at a surface peptide density of 0.12 ng/mm^2 (equivalent to 2.2×10^11 molecules/mm^2) (see, e.g., Hong, S.; et al., Chem. Biol. (Cambridge, Mass., U.S.) 2007, 14, 107-115; Plantinga, A.; et al., ACS Med. Chem. Lett. 2011, 2, 363-367; each herein incorporated by reference in its entirety)).
SPR spectroscopy. […]

bacterial cells = settings: reported in literature; cited from earlier work
[5] = target: N^α-Ac-Lys-(D)-Ala-(D)-Lac peptide; assay: SPR; ratio against free vancomycin
[6] = target: N^α-Ac-Lys-(D)-Ala-(D)-Lac peptide; assay: SPR (Biacore X), peptide immobilised on CM5 chip, Langmuir fit
[7] = target: N^α-Ac-Lys-(D)-Ala-(D)-Ala peptide; assay: SPR; ratio against free vancomycin
[8] = target: N^α-Ac-Lys-(D)-Ala-(D)-Ala peptide; assay: SPR (Biacore X), peptide immobilised on CM5 chip, Langmuir fit
[9] = target: N^α-Ac-Lys-(D)-Ala-(D)-Lac peptide; assay: SPR (Biacore X), peptide immobilised on CM5 chip, Scatchard analysis
[10] = target: N^α-Ac-Lys-(D)-Ala-(D)-Ala peptide; assay: as above
[11] = target: N^α-Ac-Lys-(D)-Ala-(D)-Lac peptide; assay: SPR; vancomycin is the reference
[12] = target: N^α-Ac-Lys-(D)-Ala-(D)-Ala peptide; assay: SPR; vancomycin is the reference

Compound	valency-corrected β (= β ÷ n) [5]	β (multivalent binding enhancement = KD vancomycin ÷ KD G5-(V)n) [5]	pKd [6]	koff [6] [s⁻¹]	kon [6] [M⁻¹ s⁻¹]	valency-corrected β (= β ÷ n) [7]	β (multivalent binding enhancement = KD vancomycin ÷ KD G5-(V)n) [7]	pKd [8]	koff [8] [s⁻¹]	kon [8] [M⁻¹ s⁻¹]	also measured
CN[C@H](CC(C)C)C(=O)N[C@H]1C(=O)N[C@@H](CC(N)=O)C(=O)N[C@H]2C(=O)N[C@H]3C(=O)N[C@H](C(=O)N[C@H](C(=O)O)c4cc(O)cc(O)c4-c4cc3ccc4O)[C@H](O)c3ccc(c(Cl)c3)Oc3cc2cc(c3O[C@@H]2O[C@H](CO)[C@@H](O)[C@H](O)[C@H]2O[C@H]2C[C@](C)(N)[C@H](O)[C@H](C)O2)Oc2ccc(cc2Cl)[C@H]1O [Vancomycin, vancomycin]											pKd ([1]; (D)-Ala-(D)-Lac surface, mean (SEM), vancomycin by Scatchard analysis): 2.82 and ~2.82; SPR binding response to the (D)-Ala-(D)-Lac surface ([1]; in words): very low responses; concentration at which optical density decreased to the background level (Staphylococcus aureus): ≥ 0.1 µM; pKd [2]: ~6.00; reduction in affinity of (D)-Ala-(D)-Lac surface to free vancomycin ([3]; relative to (D)-Ala-(D)-Ala, reported): ~1000 fold; pKd ([3]; vancomycin to (D)-Ala-(D)-Lac, literature): ~3.00 and 2.77; pKd [4]: 6.02; pKd ([4]; mean (SEM), vancomycin by Scatchard analysis): 6.02; SPR binding response to the (D)-Ala-(D)-Ala surface ([4]; in words, vancomycin at concentrations as low as 2 nM): no detectable response
CCCCCCCCCCNCCN[C@@]1(C)C[C@H](O[C@H]2[C@H](Oc3c4cc5cc3Oc3ccc(cc3Cl)[C@@H](O)[C@@H](NC(=O)[C@@H](CC(C)C)NC)C(=O)N[C@@H](CC(N)=O)C(=O)N[C@H]5C(=O)N[C@H]3C(=O)N[C@H](C(=O)N[C@H](C(=O)O)c5cc(O)c(CNCP(=O)(O)O)c(O)c5-c5cc3ccc5O)[C@H](O)c3ccc(c(Cl)c3)O4)O[C@H](CO)[C@@H](O)[C@@H]2O)O[C@@H](C)[C@H]1O [telavancin]											bactericidal activity / cell lysis (bacterial cells): potent bactericidal activity without causing cell lysis
I Ac-G5-(V)1.2	18000	210000	8.15	0.00066	98000						
II Ac-G5-(V)2.3	81000	190000	8.09	0.00041	320000	122	280	8.47	0.00045	150000	
III Ac-G5-(V)3.5	210000	750000	8.70	0.00045	640000						
IV Ac-G5-(V)5.8	150000	880000	8.77	0.00029	690000	655	3800	9.60	4.4e-05	450000	
VI GA-G5-(V)6.0	74000	440000	8.47	0.0028	1.8e+06	293	1760	9.27	0.00036	670000	
Vancomycin (peptide)											pKd [9]: 2.82; pKd [10]: 6.02; β (multivalent binding enhancement = KD vancomycin ÷ KD G5-(V)n) [11]: 1; β (multivalent binding enhancement = KD vancomycin ÷ KD G5-(V)n) [12]: 1
